Target: T1, human caspase-8β (Homo sapiens, UniProt Q14790)
T1 construct: expressed in transfected cells; host or cells: Saccharomyces cerevisiae FY250, single-copy ARS/CEN vector YCpGAL1-caspase-8β-L, GAL1 promoter
Assay: Yeast screening method: suppression of caspase-8β-induced lethality in S. cerevisiae FY250 double transformants on galactose medium
Type: cell-based
Conditions: for identified as a caspase inhibitor (product of human brain cDNA suppressing caspase-8β-induced cell death): FY250 double transformants, GAL1-driven expression, galactose-containing medium; for Caspase Inhibitor: Table 1 Caspase Modulators, identified using the screening method of the invention
Excerpt: The invention includes a screening method of determining whether a compound is a caspase modulator. […] A difference between the viability indicator of the first cell and the viability indicator of the second cell is an indication that the compound is a caspase modulator.
As described herein, the transformant expresses the caspase when an inducer of the inducible promoter of the caspase vector is provided to the caspase transformant. When the caspase transformant expresses the caspase, cytotoxicity ensues in the caspase transformant. If an inhibitor of the caspase is provided to the caspase transformant prior to the onset of cytotoxicity, the caspase transformant may be enabled to survive expression of the caspase or the onset of cytotoxicity may be delayed.
The gene encoding p35 was cloned into a yeast-based expression vector designated YCpGAL1-U (wherein U designates a URA3 selectable marker) to yield a YCpGAL1-p35-U inhibitor vector. Yeast cells were co-transformed with the inhibitor vector, YCpGAL1-p35-U, and with the caspase vector, YCpGAL1-caspase-8β-L, to yield a double transformant. Double transformants were plated on SC-leucine-uracil medium supplemented with dextrose to repress GAL1 promoter function. Serial ten-fold dilutions of individual double transformants grown in SC-leucine-uracil medium containing dextrose were prepared and spotted onto SC-leucine-uracil medium comprising dextrose or galactose.
Individual viable colonies of double transformant are isolated, and the test vector comprising the unknown cDNA is isolated.
The screening method used in this Example was performed as follows. A yeast double transformant was prepared by transforming S. cerevisiae strain FY250 with two yeast expression vectors. The first yeast expression vector comprised cDNA encoding a self-activating form of human caspase-8β operably linked to a GAL1 promoter and a LEU2 selectable marker. This first vector was a single copy vector and was designated YCpGAL1-caspase-8β-L. A plurality of second yeast expression vectors was used, each comprising a single random human cDNA sequence operably linked to a GAL1 promoter and a URA3 selectable marker. The cDNA sequences used to generate the plurality of second yeast expression vectors were obtained from a library of cDNAs prepared from human brain cells. The second vectors were multicopy vectors.
Double transformants were propagated on plates containing SC-leucine-uracil agar comprising dextrose. Colonies of double transformants were replica plated on plates containing medium comprising galactose, whereby expression of caspase-8β and of any product encoded by the cDNA of the second vector was induced. […] The second vector was recovered from individual colonies of double transformants which were able to survive on the galactose-containing medium and used, along with the first vector, to transform fresh FY250 cells. […] The identity of individual products encoded by the cDNA of individual second vectors was established by determining the nucleotide sequence of the cDNA and comparing the sequence with databases of known human gene sequences, including Genbank, the EST Database, and the Human Genome Database.

T1 sequence (Q14790 1-464 isoform Q14790-2): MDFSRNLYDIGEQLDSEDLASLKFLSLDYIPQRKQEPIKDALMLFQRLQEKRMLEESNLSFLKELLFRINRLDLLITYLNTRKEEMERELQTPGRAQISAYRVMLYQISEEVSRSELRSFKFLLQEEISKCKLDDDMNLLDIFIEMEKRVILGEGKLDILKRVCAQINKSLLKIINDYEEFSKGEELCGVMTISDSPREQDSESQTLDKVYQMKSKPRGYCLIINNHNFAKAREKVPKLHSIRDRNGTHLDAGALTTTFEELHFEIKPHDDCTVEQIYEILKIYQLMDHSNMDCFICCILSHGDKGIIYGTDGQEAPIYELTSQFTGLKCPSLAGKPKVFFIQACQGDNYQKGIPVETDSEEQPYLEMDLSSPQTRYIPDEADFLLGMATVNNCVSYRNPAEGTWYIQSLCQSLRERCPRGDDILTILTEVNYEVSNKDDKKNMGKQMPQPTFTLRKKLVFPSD

Row | Molecule | identified as a caspase inhibitor (product of human brain cDNA suppressing caspase-8β-induced cell death) | Caspase Inhibitor | survival of double transformants on galactose-containing test medium (FY250 co-transformed with YCpGAL1-p35-U and YCpGAL1-caspase-8β-L, SC-leucine-uracil medium with galactose)
1 | Human Death Associated Protein 1: product encoded by human brain cDNA; also known as DAP-1 (protein) MSSPPEGKLETKAGHPPAVKAGGMRIVQKHPHTGDTKEEKDKDDQEWESPSPPKPTVFISGVIARGDKDFPPAAAQVAHQKPHASMDKHPSPRTQHIQQPRK | caspase inhibitor | ✓ | –
2 | Human hnRNP D: product encoded by human brain cDNA, identified as caspase inhibitor (protein, UniProt Q14103 2-355, looked up) Heterogeneous nuclear …: SEEQFGGDGAAAAATAAVGGSAGEQEGAMVAATQGAAAAAGSGAGTGGGTASGGTEGGSAESEGAKIDASKNEEDEGHSNSSPRHSEAATAQREEWKMFIGGLSWDTTKKDLKDYFSKFGEVVDCTLKLDPITGRSRGFGFVLFKESESVDKVMDQKEHKLNGKVIDPKRAKAMKTKEPVKKIFVGGLSPDTPEEKIREYFGGFGEVESIELPMDNKTNKRRGFCFITFKEEEPVKKIMEKKYHNVGLSKCEIKVAMSKEQYQQQQQWGSRGGFAGRARGRGGGPSQNWNQGYSNYWNQGYGNYGYNSQGYGGYGGYDYTGYNNYYGYGDYSNQQSGYGKVSRRGGHQNSYKPY | caspase inhibitor | ✓ | –
3 | Human Myelin Basic Protein: product encoded by human brain cDNA, identified as caspase inhibitor (protein) MASQKRPSQRHGSKYLATASTMDHARHGFLPRHRDTGILDSIGRFFGGDRGAPKRGSGKDSHHPARTAHYGSLPQKSHGRTQDENPVVHFFKNIVTPRTPPPSQGKGRGLSLSRFSWGAEGQRPGFGYGGRASDYKSAHKGFKGVDAQGTLSKIFKLGGRDSRSGSPMARR | caspase inhibitor | ✓ | –
4 | Viral protein p35: known viral protein caspase inhibitor, expressed from YCpGAL1-p35-U vector (protein) MCVIFPVEIDVSQTIIRDCQVDKQTRELVYINKIMNTQLTKPVLMMFNISGPIRSVTRKNNNLRDRIKSKVDEQFDQLERDYSDQMDGFHDSIKYFKDEHYSVSCQNGSVLKSKFAKILKSHDYTDKKSIEAYEKYCLPKLVDERNDYYVAVCVLKPGFENGSNQVLSFEYNPIGNKVIVPFAHEINDTGLYEYDVVAYVDSVQFDGEQFEEFVQSLILPSSFKNSEKVLYYNEASKNKSMIYKALEFTTESSWGKSEKYNWKIFCNGFIYDKKSKVLYVKLHNVTSALNKNVILNTIK | – | ✓ | survived on this medium
5 | Human Tissue Inhibitor of Metalloprotease-3: product encoded by human brain cDNA, identified as caspase inhibitor (protein) CTCSPSHPQDAFCNSDIVIRAKVVGKKLVKEGPFGTLVYTIKQMKMYRGFTKMPHVQYIHTEASESLCGLKLEVNKYQYLLTGRVYDGKMYTGLCNFVERWDQLTLSQRKGLNYRYHLGCNCKIKSCYYLPCFVTSKNECLWTDMLSNFGYPGYQSKHYACIRQKGGYCSWYRGWAPPDKSIINATDP | caspase inhibitor | ✓ | –
6 | Glutamate-Binding Subunit of a Human NMDA Receptor Complex: product encoded by human brain cDNA, identified as caspase inhibitor (protein) MSHEKSFLVSGDNYPPPNPGYPGGPQPPMPPYAQPPYPGAPYPQPPFQPSPYGQPGYPHGPSPYPQGGYPQGPYPQGGYPQGPYPQEGYPQGPYPQGGYPQGPYPQSPFPPNPYGQPQVFPGQDPDSPQHGNYQEEGPPSYYDNQDFPATNWDDKSIRQAFIRKVFLVLTLQLSVTLSTVSVFTFVAEVKGFVRENVWTYYVSYAVFFISLIVLSCCGDFRRKHPWNLVALSVLTASLSYMVGMIASFYNTEAVIMAVGITTAVCFTVVIFSMQTRYDFTSCMGVLLVSMVVLFIFAILCIFIRNRILEIVYASLGALLFTCFLAVDTQLLLGNKQLSLSPEEYVFAALNLYTDIINIFLYILTIIGRAKE | – | ✓ | –
7 | Human Ubiquitin C-terminal Hydrolase: product encoded by human brain cDNA; also known as UHX1 (protein) MAVAPRLFGGLCFRFRDQNPEVAVEGRLPISHSCVGCRRERTAMATVAANPAAAAAAVAAAAAVTEDREPQHEELPGLDSQWRQIENGESGRERPLRAGESWFLVEKHWYKQWEAYVQGGDQDSSTFPGCINNATLFQDEINWRLKEGLVEGEDYVLLPAAAWHYLVSWYGLEHGQPPIERKVIELPNIQKVEVYPVELLLVRHNDLGKSHTVQFSHTDSIGLVLRTARERFLVEPQEDTRLWAKNSEGSLDRLYDTHITVLDAALETGQLIIMETRKKDGTWPSAQLHVMNNNMSEEDEDFKGQPGICGLTNLGNTCFMNSALQCLSNVPQLTEYFLNNCYLEELNFRNPLGMKGEIAEAYADLVKQAWSGHHRSIVPHVFKNKVGHFASQFLGYQQHDSQELLSFLLDGLHEDLNRVKKKEYVELCDAAGRPDQEVAQEAWQNHKRRNDSVIVDTFHGLFKSTLVCPDCGNVSVTFDPFCYLSVPLPISHKRVLEVFFIPMDPRRKPEQHRLVVPKKGKISDLCVALSKHTGISPERMMVADVFSHRFYKLYQLEEPLSSILDRDDIFVYEVSGRIEAIEGSREDIVVPVYLRERTPARDYNNSYYGLMLFGHPLLVSVPRDRFTWEGLYNVLMYRLSRYVTKPNSDDEDDGDEKEDDEEDKDDVPGPSTGGSLRDPEPEQAGPSSGVTNRCPFLLDNCLGTSQWPPRRRRKQLFTLQTVNSNGTSDRTTSPEEVHAQPYIAIDWEPEMKKRYYDEVEAEGYVKHDCVGYVMKKAPVRLQECIELFTTVETLEKENPWYCPSCKQHQLATKKLDLWMLPEILIIHLKRFSYTKFSREKLDTLVEFPIRDLDFSEFVIQPQNESNPELYKYDLIAVSNHYGGMRDGHYTTFACNKDSGQWHYFDDNSVSPVNENQIESKAAYVLFYQRQDVARRLLSPAGSSGAPASPACSSPPSSEFMDVN | caspase inhibitor | ✓ | –
